According to patent US20030180892A1:

Target: IL-17-like receptor (on the BIAcore surface)
Test: BIAcore (SPR), negative control conditioned media

In the case of pC4 control conditioned media, the response (RU) is reported as 20 RU.
